Measurements from article PMC4200520.

What was measured:
[1] = molecular target: TD4, minimal TACC domain (TD) fragment of XTACC3 (Xenopus); test: SPR; TD4 (50 μg/ml) amine-coupled to a CM5 chip, peptides pCt or pCt_KD as analytes 10–250 μM; BIAcore X100, 20 °C, HBS (100 mM HEPES, 150 mM NaCl, 0.05% P20, pH 7.4); steady-state fit, single-site model
[2] = molecular target: TD4, minimal TACC domain (TD) fragment of XTACC3 (Xenopus); test: ITC; TD4 (10–20 μM) in the cell, peptide (400–500 μM) in the syringe; 25 °C; 20 mM HEPES pH 7.5, 150 mM NaCl, 0.25 mM TCEP; one-site model
[3] = molecular target: TD4, minimal TACC domain (TD) fragment of XTACC3 (Xenopus); test: SEC-MALS; TD4 with saturating concentrations of pCt; Superdex 200 10/300 GL, 20 mM Tris/HCl, 150 mM NaCl, 0.25 mM TCEP, pH 8.0

With STNIDDLKKRLERIKS [pCt, synthetic peptide of XMAP-Ct residues 46-61] the Kd [1] was 30 µM, the Kd [2] was 11 µM and the stoichiometry N [2] was 0.5 TD4:pCt. For the same binder, the stoichiometry N (pCt per TD4 dimer) [3] was 4.
